Results from the DeepSol protein solubility set.

assay: soluble on expression in E. coli; label from the status in PepcDB or PDB records

Soluble on expression in E. coli, not soluble:
MGSDKIHHHHHHMGSQLFVRNGRKMQLTESGKKLYIATHKAFDTLLKGFNSIQTEDVAGTLTITSTQAFTSLWLMPRLYKFSIKHPEIKVKVVSSNGLEDLRRGHIDLAIRFITNKEVDTSDDMTYEFIAEDHVYPACSPQLMKEYNFKEPQDVLKCWLVSLENQGSIDWRTWFKEAGVENYQCHKKWTEVSSGDMALSAVLSGHGFTLASQALFSQYVITGQLVIPFNIKHPISFKRYFVFDPNSAKKERVNVFTTWLKEETLQDEKSTLEAISYGSL
MGSDKIHHHHHHMHDKFLNYFDETARQGSIRKAAAVLNMSSSSLNRKIISTENRLGIRLFDRHADGVTLTEAGVVVLEHCRNTLFDYQRIVNMVEDIRDMRTGHIDILTLDSIALSVLPEVLDDFQDAYPQVAYTIQTDEPHAVMQAVANGTADIGLSFSNDLHPDVRCQAEKSTPIGAIMAHDHPLAERDLIEVGDLAPYQLIRSYDSQTHRSFVNEAVSSLGVQLSTQMVTNSLPLAKTMILNGRGVGIYSKIGFIEEIEDGRLRYVAINSPLLRELRIGVLISARTGLLPVQHLLARALSKSLRSLRLDS
MGSDKIHHHHHHMHPNIATLLSANLGESRTRHLLSLVSVPDGLPSDAEGRATRAEIAQALNMVLFAGILDRVPTGRAYTDDVAATGGKVVFDHGALRTVKWRDNGALPEGEAAFTRILRPLGYRLNGNYPLDRISMTGRSYAHADAPEGIAQFFVSEFHPERFSDAFREAVGRVTGNSADPLTPRAQTLLWQLDRDGVLTVADGAELIGLLVPCFERQHGVPRLADYETLLRESAEMAWIATEGNAFNHATDRVDDVFGLSEQQKALGRPMKDKVEVSGSGRVKQTAFRADTVRRQFIGAQGETVERDVPGSFYEFITRDRFADAPAASPRVDLGFDAGNAQGIFKMTAAV
MGSDKIHHHHHHMHVFNYGRSYLERGDARPIYLPELPLVRGALLPQAPLDMAGALRDAAPDAWGRRVIINRLMGLKGVGAHAVEFDELTYLLHSGSDRIGALDFQTSPDRYRPREAENATLEELLEAAERVDRGEPIPPALDKALFHGSSIGGARPKALIEDGQEKFIAKFSATNDTYAIVKAEYVAMRLAKEAAGLTVAAVRLVKANGKDVLLVKRFDRERTGAGWTRRAMVSALTLLGLSEMQARYASYHDLTDIIRARFTEPRDSLRELYGRMVFNVLSGNTDDHARNHAAFWNGESLALTPAYDLCPQQRTGREANQAMLIGQEDRRSRLETCRLAASAFLLNDVEARALIHAQIDAIGAAWDGICDEADLSKIDRAFLWRRQFLNDYAFEGFGR
MGSDKIHHHHHHMHVKRAATAGFCMGVGLALKKLDRELDNNAKDIATLGPIIHNPQVLRRYEQKGVRCYTDPAEARSGQRVVIRAHGIPEETESALAAAGVDLVDATCPKVKRAQLGIARQREKGRTLLLFGEHDHPEVQGLLSYAGEGAVVFGSLEELQNGPLEDDRHYFLAAQTTQDKHAFTSVIEWVRRRFGDHVPVLDTICDATRERQDEAIAIARSVDVMVVVGGFASGNTRRLAEVAQAQGVPTYHVETPDQLPLDAIRGYGAAGLTAGASTPKSIIDETQKLLESL
MGSDKIHHHHHHMHVSLDTMVDTLKAAAESSRLRILALLSRGDLTVSDLTEILGQSQPRVSRHLKLLLEAGLIDRYQEGSWAFFRLSDADSARDFVMGLVSSIRGADPQVERDLERLASVKRKRQDRAAEYFSVNAASWDHIRSLHVPDRAVEAAMLKLVGKRPFQSMLDLGTGTGRLLEIFSPLYRRGVGIDMSREMLTVARANLDKAGVSNAQVRQGDIFSPPVERDAFDLVTIHQVLHYLDDPARAIHEAARLLRPSGRLVIVDFAPHTLEFLREEHAHMRLGFSDRQIGEWFAEAGLDLEDAQEFEPRGGSEPRLTVKLWLGRDRRLLIADPANDSQQTKVNSIGEIA
MGSDKIHHHHHHMHYPPMIATTLPDGPEQTPLTAEIVLRYHLCWKHRDLDGVMALYHPDIQYHDFFQNRVLGHQELRDYVRACLPHEAGEDIVHSDRIRVDGSTAFIQYQVTVQGGDGLVAFQSSEAITVRDGLIWRVNEYATLVRQNGTGHANSGPRPATSRLGLSPRQLSTMAQDLEHYFRRQRPYLDPELDLQQVADASGYSRNQISYLLNQVLGQSFYRYVNQARLQHLMASLGDDSVEATIDELAFSAGFNSLSAFYKCFREHTGFTPKAYLKQISLRART
MGSDKIHHHHHHMHYQFFATCPRGLEPLLEDELNSIRARQIKPTDGGVGFAGDMLLCYRANLESRIATRILLQVGKGRYSNEDELYQGAYKIDWVQWFEVEQDFMVKVTGVRCPLKSLEFATLRIKDAICDRFREEVGSRPSIDTREPDVRVHAYLGAEEYQLYVDTSGNALYQRGLRRASIEAPLRENLAAGILKLSGWQPGTPLLDPMCGSGTFLLEAAMISLDIAPGSNRSFGFERLKNFNAGAWQSLLKQAKSRAKPVAFQGIYGSDADLRAVRITRKNLEQAGLLDAMQVAHREFTDVVPPAAEGILVANPPYGVRIGEDEELAALYPKMGEALKKKFAGWNAYFLTNDMRLPKLMRLSPTKRTPLFNGPLECRVFEIKMVAGSNRKEKSND
MGSDKIHHHHHHMIDEIKSGKYKHGDKLPTEKELMERFNASRETVRKALERLVVKNLVIRKPGLGTFVNIEKKNKVVGILVQQITSYIFPYIALGAEEVLFANGYKMLLGNASEDPHKERQIINEWLEVGVDGLIIDPVYSATKRSNRDLIEDMAKKGTKVVLVHTNWDIEGVGSVVLDDWYGGEKAAEIFYQYGHRNVAVLYKTIHLPSVVRAQAFLKRGRELGFEKVHEKSFHVSEFTGIVMQSAFELLSLPKDQRPTAVFCYNDATALQFFLAAKRMGLKIPEDVSVIGFDDAPIGDFREILTTFEHPKEEVGKKAVEILLKMIDGEKPEKYVFKPKLIMRESVTYPKK
MGSDKIHHHHHHMIDSMTHRKLSKTAQPLSPTRPWHSTKATCYSAMLSTWSLSQKRLSISALILAITSTATWANEVKNQDIQAASKSNTCYVEGVSDRLNCGFVTVPENPNKPDGKQIQVHYVVLPAVKNANHEEALLAIAGGPGQSAIDNAAGFDAMLSKVRQQRDILLIDQRGTGRSNLLTCDESANPLSLDDDSIDPSAETQKCLDKIDADVSQYGSLNAVKDFEAVRAHLGYKKLHIYGISYGTRMAQLYMRLYPEQLATVTLDGVVPMQQSVLEIGSAIDRGFELLFKDCQENTVCKQQFPQLKAEFEQVANTLAKGAITENVFDPVTGEKNQLIITRGKFYGAIRMALYQTNVRALVPHAIHQAANNHFQPLLGLYALTVDNAGIAMGMHTSVVCGEDIHRITPAMREKAASSYVGQTMLDSMEKTCAIWKVPAVDNSFSEPISSNIPTLLLSGEIDPATPPSWGELAMEKLTNAKHFIAPYATHGVAYQSCANGLVADLVRTGSINDLDGECLNKDVRRSFYLNASSVEPLNATSTKTTTTNNNASTGAKE
MGSDKIHHHHHHMIEPVSEDTILITLAPAIDDTLPARIASLVDSIRRAGFHWLVDMVPSYTTLMVVYDPVLVDFRQVTDKLRPIVHRLSTQGHTAELKSRLVELPVYYSAETGPDLQWLATESGLDCEEVIRRHSSVEYRVHALGFAPGFAFMGQVDPSIAAPRKTTPRKQVPAGSVGIANRQTAVYPQVSPGGWQLIGRCPTRLFDSTNLSLLKVGDRVRFTPISREAFLAAGGELIS
MGSDKIHHHHHHMIGEKIISFESIDSTNRFLKENYRFYPDGTVVVALEQTSGYGRSGRHWHSPKGGLWFSVLFKPRKPLELSFYTRVFSVAVVKTLENMKIHANIKWPNDVYINGRKLAGVLSEGIFEGAKPLAVVVGVGMNVNNEIPAELKTRAISLKEIMGKEISIVKLMESMLKNARVIFRKYSRKKEALTRIWKRYLLQKEGDLISLEGKKGKIVKINPDSLLIDFDGEIKKVYSLSPH
MGSDKIHHHHHHMIGRKRKYEDPHIRSFHELLSGHNPVLYKKEDLLAYDCDGFTIHKHLPKAVVFPENTREVASIVRYCHDHNLPFLARGAGTGLSGGAIPINGEVIISLVRMKRLLEVDLKNRRAIVEPGYVNLKLTQSIEDKGYYYAPDPSSQYCCTIGGNVAENAGGAHCLKYGVTTNHILGMEVVLPNGDIVEIGKAGILDEPGYDLLGLMTGSEGTLGIVTKITVRILKHPEAKQTVLAYFDKVSDASHTVSDIISEGIVPAALEMMDRIAMEGVEAAAFPIGHLLDAEAVLLIEVDGISAGMDQQIERILTVCRKHHVREVKDEMVGEPKNRLWCHGCHLTRLPRTRWSDPADKASGRAFNDSKNQRNIRATNRKYFSRR
MGSDKIHHHHHHMIIDEISLFILDMDGTLTLEPSSWDYVHRRLGINNHSVTRLYRNRYINYYCFFQSDIKAWLHKYPNLKKEKVVEFLREVPIRHGADELINVLRKNGIRTAVISGGISWLFDIISERSKIDYNFSNEIFTDEYGYIVPEGKVRVIPEEKDLVVRKIQEELGIGKDQTASVGDEMENDRIHRYSKYRFIISKKARDNLIPIPSGDLEDLLRILE
MGSDKIHHHHHHMIILGIHDGHDAGAVLLNDEEIYAVNEERLNRVKKYRGFPELSIRKVLEMSGTEPDDVDVIAIAGLFRRQKRLLELEHKLKSIFGPKFKEKAIFVEHHLAHASSAYYSSGLRDAVVLTIDAAGDGLSSTVSIAKDGQMFRIAQSTYIDSLGDFYASVTELLGFKPMRHEGKVMSLAAYGNPRYELSAIIELNGLTFENKLKVIGTEATKKLAEFFEFPLEKAKEVSSNLKRGIMDNELEKKAIEIAASAQAHLERLIEEMGLELKKYELPIAYAGGVAQNVKANAILRRIFGDIWIFPAMDDAGLAFGAAIYVKAQMELLFGKWKPFKLKHVFLGPSYSPEEIEEILKREGLEYEEVDVPSFVADSLVEGKLVGLFQGRLEYGPRALGNRSILADPRNEKVREKLNLALRRDVFQPFAPSILEERFPDYIEDLTGEPNRFMTMSYLASEEFMEVAPAVVHIDGTTRPQSVPKDLGTYYKIIRRFEKRTGVGAVLNTSFNMHGEPIVCSPLDAIRTAKSAKLDVLLLERFGVYIV
MGSDKIHHHHHHMIIPHRKPCIESQIKTSGNLDELKMIINDLLYSEKEIQILPSGNSAIHIASEIVSKLNPNSKTLIPDMGGWKGFETYSKLSGLSIEKLKTNLGVVNLEILEEKIKECSAKSLFLTSLAGYLAEQPLKEIAKICSENDCLFIEDVSGKIGGDCGYGDMVVCSTGSPKIINCEYGGFLGFSKKINENLKDKHLKEDIKNLLKTYKMPDIYGKMIEETLISKKSYELCIKFSNIVKENMENAYFKDSQGVSVFLSYENPKEIAKNIDKSVKLNNGKSILTMCPLYERILRKGVVLEIKKMDIHKISENEIYEILNFF
MGSDKIHHHHHHMIIRAGYNIAFQCFQETPINLLLSVHPSRAQHVIGEHVIKFSPDVPSHDFTDMFGNVCTRIVAPAGRIDISNDFLIEDTGLPDEVAPGAREIPVAELPDEVMVYLLGSRYCDTDKLATLAWSMFGGIPSGWQRVQAIVDYVHNHITFGYQFARNDRTASEGHAEQIGVCRDFAHLAVTLCRCMNIPARYCTGYLGDIGVPQDPAPMDFSAWFEVYLDGRWYTFDARHNHPRIGRIVIARGRDAADVAISTSFGTANLLNFEVITHEVTDQAAVTDARLQKVA
MGSDKIHHHHHHMIKALNIVTKTGTELQGALFKAAHATTVLIAITGVHGNFYSNPFYVNIGKTLMAAGIDFIYAQTRDAFNQVVSLNHLTGKKELVGSWSEQFDDANEDIAAYLSYAEENQYQHIILGGHSLGANKVIYYLANHADVNVTKFLLLSPANLKRLTDMVSLSERNIIQKQIAAGNSNQLLPFELFGWLPCTAKTADQWLNSGILDNVHSDLRADFSQIERIRLSGAMVIGTLDTFTYGDPIKYLKTINAHFLSHAENDLVFIQKTGHTYQNKDQKLANEILKLIKNWSLGGN
